US20020142359A1 (AstraZeneca / MedImmune, published 2002)
Each block holds one molecule with its values, some of them ahead of it.

Key:
[1] = target: CEA on LS174T colo-rectal tumour cells (UniProt P06731); experiment: cell-based or functional assay
[2] = target: T1, CEA (Carcinoembryonic antigen), purified antigen (UniProt P06731 35-685, limits assumed); experiment: CEA ELISA (50 ng CEA per well) on NS0 culture supernatants, detected with HRPO anti-human kappa
T1 construct: Purified CEA, 50 ng per well in the CEA ELISA; also called native CEA; untreated CEA
T1 sequence (looked up): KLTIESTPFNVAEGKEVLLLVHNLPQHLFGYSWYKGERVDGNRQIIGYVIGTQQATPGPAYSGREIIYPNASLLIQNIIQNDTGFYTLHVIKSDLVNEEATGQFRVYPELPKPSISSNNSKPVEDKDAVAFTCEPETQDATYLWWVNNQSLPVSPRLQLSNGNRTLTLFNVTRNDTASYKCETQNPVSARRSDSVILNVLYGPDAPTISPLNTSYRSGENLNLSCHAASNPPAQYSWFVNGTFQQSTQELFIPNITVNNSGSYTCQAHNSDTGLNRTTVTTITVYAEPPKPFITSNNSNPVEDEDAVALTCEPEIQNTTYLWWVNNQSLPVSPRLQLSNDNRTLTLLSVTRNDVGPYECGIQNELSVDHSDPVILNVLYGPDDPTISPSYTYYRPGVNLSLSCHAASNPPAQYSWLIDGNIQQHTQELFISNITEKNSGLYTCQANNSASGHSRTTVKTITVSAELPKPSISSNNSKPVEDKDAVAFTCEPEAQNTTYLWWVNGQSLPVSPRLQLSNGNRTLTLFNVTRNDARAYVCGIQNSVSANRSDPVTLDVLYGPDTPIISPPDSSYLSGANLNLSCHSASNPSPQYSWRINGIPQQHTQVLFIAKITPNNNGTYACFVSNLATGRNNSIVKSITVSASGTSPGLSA
Description: (§1) For the CEA ELISA each well of a 96 well immunoplate (NUNC MAXISORB™) was coated with 50 ng CEA in 50 mM carbonate/bicarbonate coating buffer pH9.6 (buffer capsules—Sigma C3041) and incubated at 4° C. overnight. The plate was washed three times with PBS+0.05% Tween 20 and then blocked 150 μl per well of 1% BSA in PBS +0.05% Tween 20 for 1 hour at room temperature. The plate was washed as previously described, 100 μl of test sample added per well and incubated at room temperature for 2 hours. Again the plate was washed three times with PBS+0.05% Tween 20, 100 μl per well of a 1/500 dilution of HRPO-labelled goat anti-human kappa antibody (Sigma A 7164) was added, in 1% BSA in PBS-Tween 20 and incubated at room temperature on a rocking platform for at least 1 hour. The plate was washed as before and then once more with PBS. To detect binding add 100 μl per well developing solution (one capsule of phosphate-citrate buffer—Sigma P4922—dissolved in 100 mls H₂O to which is added one 30 mg tablet o-phenylenediamine dihydrochloride—Sigma P8412) and incubated for up to 15 minutes. The reaction was stopped by adding 75 μl 2M H₂SO₄, and absorbance read at 490 nm.

[3] = target: T1, CEA (Carcinoembryonic antigen), …; experiment: CEA ELISA on NS0 culture supernatants (Example 41)
Description: as §1
(§2) As before, the human F(ab′)₂ antibody fragment was then purified from the culture supernatant as described in Example 102.

[4] = target: T1, CEA (Carcinoembryonic antigen), …; experiment: CEA ELISA on NS0 culture supernatants (Example 39)
Description: as §1, §2

[5] = target: T1, CEA (Carcinoembryonic antigen), …; experiment: CEA ELISA on NS0 culture supernatants (Example 43)
Description: as §1, §2

[6] = target: T1, CEA (Carcinoembryonic antigen), …; experiment: CEA ELISA on NS0 culture supernatants (Example 14)
Description: as §1

[7] = target: T1, CEA (Carcinoembryonic antigen), …; experiment: CEA ELISA on NS0 culture supernatants (Example 45)
Description: as §1, §2

[8] = target: T1, CEA (Carcinoembryonic antigen), …; experiment: CEA ELISA on NS0 culture supernatants (Example 47)
Description: as §1, §2

[9] = target: T1, CEA (Carcinoembryonic antigen), …; experiment: CEA ELISA on NS0 culture supernatants (Example 42)
Description: as §1, §2

[10] = target: T1, CEA (Carcinoembryonic antigen), …; experiment: CEA ELISA on media from NS0 clones, detected with anti-human kappa peroxidase conjugate
Description: Media from wells containing single viable clones was taken for testing and replaced with fresh media (containing G418).

[11] = target: T1, CEA (Carcinoembryonic antigen), …; experiment: EIA of hybridoma supernatants against native CEA; line 806.077 was cloned from one of the positive wells

- [3H] thymidine incorporation by T cells on anti-CD3 coated wells (T cells + LS174T/fusion protein) [1]: 41800 cpm
- [3H] thymidine uptake, fold over no co-stimulation [1]: > 11 fold
- [3H] thymidine uptake, fold over tumour cells alone [1]: > 3 fold
Molecule: human B7.1-murine A5B7 F(ab')2 fusion protein (AB7)

- binding result [2]: binds
B1: humanised 806.077 HuVH1/HuVK1 HuIgG2 F(ab')2 (Initial humanised antibody) (antibody, V domains shown)
VH: EVQLQQSGPGLVRPSQTLSLTCTASGFNIKDNYMHWVRQPPGRGLEWIGWIDPENGDTEYAPKFRGRVTMLADTSKNQFSLRLSSVTAADTAVYYCHVLIYAGYLAMDYWGQGTLVTVSS
VL: DIQMTQSPSSLSASVGDRVTITCSASSSVTYMHWYQQKPGKAPKLLIYSTSNLASGVPSRFSGSGSGTDYTFTISSLQPEDIATYYCQQRSTYPLTFGQGTKLEIKR
notes: F(ab')2 fragment secreted by NS0 cells and tested as culture supernatant

- binding result [3]: binds
B2: humanised 806.077 HuVH1/HuVK1 HuIgG3 F(ab')2 (antibody, V domains shown)
VH: EVQLQQSGPGLVRPSQTLSLTCTASGFNIKDNYMHWVRQPPGRGLEWIGWIDPENGDTEYAPKFRGRVTMLADTSKNQFSLRLSSVTAADTAVYYCHVLIYAGYLAMDYWGQGTLVTVSS
VL: DIQMTQSPSSLSASVGDRVTITCSASSSVTYMHWYQQKPGKAPKLLIYSTSNLASGVPSRFSGSGSGTDYTFTISSLQPEDIATYYCQQRSTYPLTFGQGTKLEIKR
notes: F(ab')2 fragment from NS0 supernatant; also called HuVH1-HuIgG3 + HuVK1-HuCK

- binding result [4]: binds
B3: humanised 806.077 HuVH1/HuVK1 HuIgG1 F(ab')2 (antibody, V domains shown)
VH: EVQLQQSGPGLVRPSQTLSLTCTASGFNIKDNYMHWVRQPPGRGLEWIGWIDPENGDTEYAPKFRGRVTMLADTSKNQFSLRLSSVTAADTAVYYCHVLIYAGYLAMDYWGQGTLVTVSS
VL: DIQMTQSPSSLSASVGDRVTITCSASSSVTYMHWYQQKPGKAPKLLIYSTSNLASGVPSRFSGSGSGTDYTFTISSLQPEDIATYYCQQRSTYPLTFGQGTKLEIKR
notes: F(ab')2 fragment from NS0 supernatant; also called HuVH1-HuIgG1 + HuVK1-HuCK

- binding result [5]: binds
B4: humanised 806.077 HuVH1/HuVK3 HuIgG2 F(ab')2 (antibody, V domains shown)
VH: EVQLQQSGPGLVRPSQTLSLTCTASGFNIKDNYMHWVRQPPGRGLEWIGWIDPENGDTEYAPKFRGRVTMLADTSKNQFSLRLSSVTAADTAVYYCHVLIYAGYLAMDYWGQGTLVTVSS
VL: QIVLTQSPSSLSASVGDRVTITCSASSSVTYMHWYQQKPGKAPKLLIYSTSNLASGVPSRFSGSGSGTDYTFTISSLQPEDIATYYCQQRSTYPLTFGQGTKLEIKR
notes: F(ab')2 fragment from NS0 supernatant

- binding result [6]: binds
B5: humanised 806.077 HuVH1/HuVK4 HuIgG2 F(ab')2 (antibody, V domains shown)
VH: EVQLQQSGPGLVRPSQTLSLTCTASGFNIKDNYMHWVRQPPGRGLEWIGWIDPENGDTEYAPKFRGRVTMLADTSKNQFSLRLSSVTAADTAVYYCHVLIYAGYLAMDYWGQGTLVTVSS
VL: DIQMTQSPSSLSASVGDRVTITCSASSSVTYMHWYQQKPGKAPKLWIYSTSNLASGVPSRFSGSGSGTDYTFTISSLQPEDIATYYCQQRSTYPLTFGQGTKLEIKR
notes: as for B4

- binding result [7]: binds
B6: humanised 806.077 HuVH1/HuVK4 HuIgG1 F(ab')2 (antibody, V domains shown)
VH: EVQLQQSGPGLVRPSQTLSLTCTASGFNIKDNYMHWVRQPPGRGLEWIGWIDPENGDTEYAPKFRGRVTMLADTSKNQFSLRLSSVTAADTAVYYCHVLIYAGYLAMDYWGQGTLVTVSS
VL: DIQMTQSPSSLSASVGDRVTITCSASSSVTYMHWYQQKPGKAPKLWIYSTSNLASGVPSRFSGSGSGTDYTFTISSLQPEDIATYYCQQRSTYPLTFGQGTKLEIKR
notes: F(ab')2 fragment from NS0 supernatant; also called HuVH1-HuIgG1 + HuVK4-HuCK

- binding result [8]: binds
B7: humanised 806.077 HuVH1/HuVK4 HuIgG3 F(ab')2 (antibody, V domains shown)
VH: EVQLQQSGPGLVRPSQTLSLTCTASGFNIKDNYMHWVRQPPGRGLEWIGWIDPENGDTEYAPKFRGRVTMLADTSKNQFSLRLSSVTAADTAVYYCHVLIYAGYLAMDYWGQGTLVTVSS
VL: DIQMTQSPSSLSASVGDRVTITCSASSSVTYMHWYQQKPGKAPKLWIYSTSNLASGVPSRFSGSGSGTDYTFTISSLQPEDIATYYCQQRSTYPLTFGQGTKLEIKR
notes: F(ab')2 fragment from NS0 supernatant; also called HuVH1-HuIgG3 + HuVK4-HuCK

- binding result [9]: binds
B8: humanised 806.077 HuVH1/HuVK3 HuIgG1 F(ab')2 (antibody, V domains shown)
VH: EVQLQQSGPGLVRPSQTLSLTCTASGFNIKDNYMHWVRQPPGRGLEWIGWIDPENGDTEYAPKFRGRVTMLADTSKNQFSLRLSSVTAADTAVYYCHVLIYAGYLAMDYWGQGTLVTVSS
VL: QIVLTQSPSSLSASVGDRVTITCSASSSVTYMHWYQQKPGKAPKLLIYSTSNLASGVPSRFSGSGSGTDYTFTISSLQPEDIATYYCQQRSTYPLTFGQGTKLEIKR
notes: F(ab')2 fragment from NS0 supernatant; also called HuVH1-HuIgG1 + HuVK3-HuCK

- binding result [10]: binds
B9: pro-[A248S,G251T,D253K]HCPB-linker-F(ab')2(humanised 806.077) (other)
heavy: HHGGEHFEGEKVFRVNVEDENHINIIRELASTTQIDFWKPDSVTQIKPHSTVDFRVKAEDTVTVENVLKQNELQYKVLISNLRNVVEAQFDSRVRATGHSYEKYNKWETIEAWTQQVATENPALISRSVIGTTFEGRAIYLLKVGKAGQNKPAIFMDCGFHAREWISPAFCQWFVREAVRTYGREIQVTELLDKLDFYVLPVLNIDGYIYTWTKSRFWRKTRSTHTGSSCIGTDPNRNFDAGWCEIGASRNPCDETYCGPAAESEKETKALADFIRNKLSSIKAYLTIHSYSQMMIYPYSYAYKLGENNAELNALAKATVKELASLHGTKYTYGPGATTIYPSAGTSKDWAYDQGIRYSFTFELRDTGRYGFLLPESQIRATCEETFLAIKYVASYVLEHLYGGGSGGGSGGGSEVQLQQSGPGLVRPSQTLSLTCTASGFNIKDNYMHWVRQPPGRGLEWIGWIDPENGDTEYAPKFRGRVTMLADTSKNQFSLRLSSVTAADTAVYYCHVLIYAGYLAMDYWGQGTLVTVSSASTKGPSVFPLAPCSRSTSGGTAALGCLVKDYFPEPVTVSWNSGALTSGVHTFPAVLQSSGLYSLSSVVTVPSSSLGTQTYTCNVNHKPSNTKVDKRVELKTPLGDTTHTCPRCPEPKSCDTPPPCPRCPEPKSCDTPPPCPRCPEPKSCDTPPPCPRCPAPELLGG
light: DIQMTQSPSSLSASVGDRVTITCSASSSVTYMHWYQQKPGKAPKLWIYSTSNLASGVPSRFSGSGSGTDYTFTISSLQPEDIATYYCQQRSTYPLTFGQGTKLEIKRTVAAPSVFIFPPSDEQLKSGTASVVCLLNNFYPREAKVQWKVDNALQSGNSQESVTEQDSKDSTYSLSSTLTLSKADYEKHKVYACEVTHQGLSSPVTKSFNRGEC
notes: Antibody-enzyme fusion secreted by NS0 cells

- binding result [11]: binds
B10: 806.077 antibody (antibody, V domains shown)
VH: EVQLQQSGAELVRSGASVKLSCTASGFNIKDNYMHWVKQRPEQGLEWIAWIDPENGDTEYAPKFRGKATLTADSSSNTAYLHLSSLTSEDTAVYYCHVLIYAGYLAMDYWGQGTSVAVSS
VL: DIELTQSPAIMSASPGEKVTITCSASSSVTYMHWFQQKPGTSPKLWIYSTSNLASGVPARFSGSGSGTSYSLTISRMEAEDAATYYCQQRSTYPLTFGAGTKLELKR
notes: The cDNA primers hybridise to murine IgG1 CH1 and murine kappa constant regions
